According to patent US20210324359A1, “USE OF GRAM-NEGATIVE LYSIN-ANTIMICROBIAL PEPTIDE (AMP) POLYPEPTIDE CONSTRUCTS IN TREATING ENDOCARDITIS” (priority 2020, published 2021):

Key:
[1] = test system: Pseudomonas aeruginosa strain 1292; settings: 10 μg/mL, 15 minutes, 100% human serum
Description: Samples were stained using the Live/Dead Cell Viability Kit (ThermoFisher) and examined by both differential interference contrast (DIC) and fluorescence microscopy.

[2] = test system: Pseudomonas aeruginosa biofilm; experiment: MBEC in CAA supplemented with […] human serum (Table 14); type: cell-based
Procedure, shortened: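 P. aeruginosa biofilms were washed and exposed to 2-fold lysin dilutions for 24 h at 37 °C, then washed, dried and stained with 0.05% crystal violet for 10 min. MBEC determined by standard methods in medium supplemented with human serum.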

[3] = test system: outer membrane of P. aeruginosa (CFS 1292); experiment: N-phenyl-1-napthylamine (NPN) uptake assay, outer membrane destabilization (Table 15); type: cell-based, Pseudomonas aeruginosa; settings: NPN fluorescence, buffer = 100, lysin 100 μg/well
Experimental: The ability of gram-negative lysins to destabilize the outer membrane of P. aeruginosa was evaluated through the use of an N-phenyl-1-napthylamine (NPN) uptake assay. […] NPN was added to a final concentration of […]. […] Changes in fluorescence were recorded (excitation 1=350 nm; emission 1=420 nm) over two hours.

[4] = test system: Pseudomonas aeruginosa strain CFS-1292 (meropenem resistant); settings: strain CFS-1292; no added cations
Experimental: The activity of selected GN lysins and constructs in the presence of divalent cations was evaluated, and the impact of divalent cations at physiological concentrations was examined in the MIC assay format.

P. aeruginosa strains = experiment: Checkerboard synergy with meropenem in 25% CAA and […] human serum (Table 16); type: cell-based, Pseudomonas aeruginosa; settings: for FICI value (Run #1), with meropenem / FICI value (Run #2), with meropenem: 25% CAA and […] human serum

B1: GN121: variant lysin (SEQ ID NO: 175), also disclosed in WO 2019/118632 (protein)
chain: MTYTLSKRSLDNLKGVHPDLVAVVHRAIQLTPVDFAVIEGLRSVSRQKELVAAGASKTMNSRHLTGHAVDLAAYVNGIRWDWPLYDAIAVAVKAAAKELGVAIVWGGDWTTFKDGPHFELDRSKYRRKKTRKRLKKIGKVLKWI
live/dead bacteria by microscopy [1]: a reduction of live bacteria
MBEC in CAA supplemented with […] human serum [2]: 0.25 µg/mL
% RFU ([3]; 5 minutes): 370 % RFU
% RFU ([3]; 10 minutes): 500 % RFU
% RFU ([3]; 20 minutes): 528 % RFU
% RFU ([3]; 40 minutes): 530 % RFU
% RFU ([3]; 60 minutes): 565 % RFU
% RFU ([3]; 100 minutes): 557 % RFU
MIC in 25% CAA [4]: 1 to 2 µg/mL
synergy with meropenem (P. aeruginosa strains; FICI less than or equal to 0.5 = potent synergy): exhibited synergy with meropenem
FICI value (Run #1), with meropenem (P. aeruginosa strains; strain CFS 1292): 0.25
FICI value (Run #2), with meropenem (P. aeruginosa strains; strain CFS 1292): 0.292
FICI value (Run #1), with meropenem (P. aeruginosa strains; strain CFS 1557 (PA19)): 0.375
FICI value (Run #2), with meropenem (P. aeruginosa strains; strain CFS 1557 (PA19)): 0.427
FICI value (Run #1), with meropenem (P. aeruginosa strains; strain CFS 1558 (PA20)): 0.125
FICI value (Run #2), with meropenem (P. aeruginosa strains; strain CFS 1558 (PA20)): 0.156
FICI value (Run #2), with meropenem (P. aeruginosa strains; strain CFS 1559 (PA21)): 0.229
FICI value (Run #2), with meropenem (P. aeruginosa strains; strain CFS 1560 (PA22)): 0.313
FICI value (Run #2), with meropenem (P. aeruginosa strains; strain CFS 1561 (PA23)): 0.198
FICI value (Run #2), with meropenem (P. aeruginosa strains; strain CFS 1562 (PA24)): 0.214
FICI value (Run #2), with meropenem (P. aeruginosa strains; strain CFS 1766 (ATCC 27853)): 0.229
